We go through 1 substance from paper PMC5342555, “ATAD2 is an epigenetic reader of newly synthesized histone marks during DNA replication” (Oncotarget, 2016).

For the test, the target named is H4K12ac-TAMRA peptide. Briefly: fluorescence polarisation. As to conditions: 8 nM H4K12ac-TAMRA peptide; value read at the highest BD mut concentration shown, est. about 500-600 nM; parent: est. 80; read off a plot.

Sequence of ATAD2^342-1390 WT (Q6PL18 342-1390 V1013A/Y1021A/I1074A, change not shown): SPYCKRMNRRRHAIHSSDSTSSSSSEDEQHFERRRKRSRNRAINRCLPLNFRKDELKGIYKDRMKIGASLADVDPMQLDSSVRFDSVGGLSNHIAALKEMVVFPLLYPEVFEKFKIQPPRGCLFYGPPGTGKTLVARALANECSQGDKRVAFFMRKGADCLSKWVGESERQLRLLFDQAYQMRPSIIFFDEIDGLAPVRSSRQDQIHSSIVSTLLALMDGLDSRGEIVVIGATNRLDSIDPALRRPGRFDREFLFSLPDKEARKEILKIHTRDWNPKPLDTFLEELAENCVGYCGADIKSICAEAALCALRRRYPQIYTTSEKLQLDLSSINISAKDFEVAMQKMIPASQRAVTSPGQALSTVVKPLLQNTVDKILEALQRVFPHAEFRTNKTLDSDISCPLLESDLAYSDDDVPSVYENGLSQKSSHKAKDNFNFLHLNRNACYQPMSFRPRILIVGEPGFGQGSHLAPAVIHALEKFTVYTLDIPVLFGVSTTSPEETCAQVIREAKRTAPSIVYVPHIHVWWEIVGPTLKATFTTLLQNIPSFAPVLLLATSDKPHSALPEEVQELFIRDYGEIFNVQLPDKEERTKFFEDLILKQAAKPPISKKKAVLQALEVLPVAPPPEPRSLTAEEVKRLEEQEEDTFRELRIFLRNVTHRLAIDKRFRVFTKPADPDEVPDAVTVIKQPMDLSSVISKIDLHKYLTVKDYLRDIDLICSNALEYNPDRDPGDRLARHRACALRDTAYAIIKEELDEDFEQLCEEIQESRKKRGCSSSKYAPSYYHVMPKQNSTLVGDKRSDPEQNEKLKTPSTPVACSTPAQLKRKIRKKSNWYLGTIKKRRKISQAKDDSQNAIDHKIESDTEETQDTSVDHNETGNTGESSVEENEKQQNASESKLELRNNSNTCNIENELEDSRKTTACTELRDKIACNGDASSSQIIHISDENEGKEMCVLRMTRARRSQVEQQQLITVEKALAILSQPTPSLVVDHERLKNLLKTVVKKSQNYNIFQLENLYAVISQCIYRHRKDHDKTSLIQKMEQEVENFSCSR

With “ATAD2^342-1390 WT (from UniProt Q6PL18) BD mut”, the response was determined as 14 mP.
